Results from patent US20240254200A1 (APITBIO, published 2024).

Key:
[1] = molecular target: T1, L1CAM on the human ovarian cancer cell line SKOV3 (human, UniProt P32004 20-1257); assay: flow cytometry on SKOV3 cells, anti-human IgG Fc-FITC
T1 construct: whole, on cells; The cells express L1CAM but not preS1; also called SKOV3 cells

[2] = molecular target: T2, GST-preS1(1-56)-strep of HBV genotype A (hepatitis B virus genotype A, UniProt P08515 1-218 = GST); assay: indirect ELISA, GST-preS1(1-56)-strep coated, serially diluted AbS0, anti-human IgG Fc-HRP
T2 construct: Expressed in E. coli; also called recombinant preS1 of HBV genotype A; preS1 antigen of genotype A; not shown: strep tag
T2 sequence (P08515 whole entry): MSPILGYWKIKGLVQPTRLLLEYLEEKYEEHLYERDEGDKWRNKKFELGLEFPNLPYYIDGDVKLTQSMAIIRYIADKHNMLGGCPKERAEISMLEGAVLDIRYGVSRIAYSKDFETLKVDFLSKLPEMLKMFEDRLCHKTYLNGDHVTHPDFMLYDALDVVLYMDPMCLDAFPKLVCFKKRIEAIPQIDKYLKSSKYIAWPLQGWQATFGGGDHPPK

[3] = molecular target: T3, GST-preS1(1-56)-strep of HBV genotype B (hepatitis B virus genotype B, UniProt P08515 1-218 = GST); assay: as above
T3 construct: Expressed in E. coli; also called recombinant preS1 of genotype B; not shown: strep tag
T3 sequence (P08515 whole entry): as above

[4] = molecular target: T4, GST-preS1(1-56)-strep of HBV genotype C (hepatitis B virus genotype C, UniProt P08515 1-218 = GST); assay: as above
T4 construct: Expressed in E. coli; also called wild type preS1 antigen; recombinant preS1 of genotype C; not shown: strep tag
T4 sequence (P08515 whole entry): as above

[5] = molecular target: T5, GST-preS1(1-56)-strep of HBV genotype D (hepatitis B virus genotype D, UniProt P08515 1-218 = GST); assay: as above
T5 construct: Expressed in E. coli; also called recombinant preS1 of genotype D; not shown: strep tag
T5 sequence (P08515 whole entry): as above

[6] = molecular target: T2, GST-preS1(1-56)-strep of HBV genotype A; assay: indirect ELISA, genotype A GST-preS1(1-56)-strep (NPLGFFP) coated, serially diluted antibody
[7] = molecular target: T2, GST-preS1(1-56)-strep of HBV genotype A; assay: BLI (Octet RED384), antibody captured on anti-human Fc tips, antigen 25-1.5625 nM in solution, 1:1 model
[8] = molecular target: T4, GST-preS1(1-56)-strep of HBV genotype C; assay: indirect ELISA, genotype C GST-preS1(1-56)-strep coated (100 ng), antibody from culture supernatant, anti-human IgG Fc-HRP
BSA = molecular target: T6, BSA (Bos taurus, UniProt P02769); assay: indirect ELISA of monoclonal Fab phage on coated antigen, anti-M13-HRP
T6 construct: control antigen of the phage ELISA; also called bovine serum albumin
T6 sequence (P02769 25-607 limits assumed): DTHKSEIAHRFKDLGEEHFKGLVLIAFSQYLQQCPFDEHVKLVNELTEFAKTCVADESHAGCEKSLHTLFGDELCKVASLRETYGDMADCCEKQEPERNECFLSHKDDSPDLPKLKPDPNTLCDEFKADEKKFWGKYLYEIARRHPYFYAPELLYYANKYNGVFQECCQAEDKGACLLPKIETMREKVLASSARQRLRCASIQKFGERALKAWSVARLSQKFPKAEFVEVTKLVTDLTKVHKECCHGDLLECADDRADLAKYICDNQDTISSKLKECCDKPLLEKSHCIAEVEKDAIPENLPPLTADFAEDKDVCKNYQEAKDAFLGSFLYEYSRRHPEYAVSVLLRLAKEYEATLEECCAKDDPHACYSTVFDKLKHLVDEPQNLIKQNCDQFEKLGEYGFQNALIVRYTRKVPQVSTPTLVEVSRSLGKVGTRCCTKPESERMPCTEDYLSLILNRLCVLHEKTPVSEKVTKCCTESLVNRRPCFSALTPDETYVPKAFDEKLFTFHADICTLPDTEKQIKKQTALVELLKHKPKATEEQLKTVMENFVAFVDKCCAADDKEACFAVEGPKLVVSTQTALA

T1 sequence (P32004 20-1257): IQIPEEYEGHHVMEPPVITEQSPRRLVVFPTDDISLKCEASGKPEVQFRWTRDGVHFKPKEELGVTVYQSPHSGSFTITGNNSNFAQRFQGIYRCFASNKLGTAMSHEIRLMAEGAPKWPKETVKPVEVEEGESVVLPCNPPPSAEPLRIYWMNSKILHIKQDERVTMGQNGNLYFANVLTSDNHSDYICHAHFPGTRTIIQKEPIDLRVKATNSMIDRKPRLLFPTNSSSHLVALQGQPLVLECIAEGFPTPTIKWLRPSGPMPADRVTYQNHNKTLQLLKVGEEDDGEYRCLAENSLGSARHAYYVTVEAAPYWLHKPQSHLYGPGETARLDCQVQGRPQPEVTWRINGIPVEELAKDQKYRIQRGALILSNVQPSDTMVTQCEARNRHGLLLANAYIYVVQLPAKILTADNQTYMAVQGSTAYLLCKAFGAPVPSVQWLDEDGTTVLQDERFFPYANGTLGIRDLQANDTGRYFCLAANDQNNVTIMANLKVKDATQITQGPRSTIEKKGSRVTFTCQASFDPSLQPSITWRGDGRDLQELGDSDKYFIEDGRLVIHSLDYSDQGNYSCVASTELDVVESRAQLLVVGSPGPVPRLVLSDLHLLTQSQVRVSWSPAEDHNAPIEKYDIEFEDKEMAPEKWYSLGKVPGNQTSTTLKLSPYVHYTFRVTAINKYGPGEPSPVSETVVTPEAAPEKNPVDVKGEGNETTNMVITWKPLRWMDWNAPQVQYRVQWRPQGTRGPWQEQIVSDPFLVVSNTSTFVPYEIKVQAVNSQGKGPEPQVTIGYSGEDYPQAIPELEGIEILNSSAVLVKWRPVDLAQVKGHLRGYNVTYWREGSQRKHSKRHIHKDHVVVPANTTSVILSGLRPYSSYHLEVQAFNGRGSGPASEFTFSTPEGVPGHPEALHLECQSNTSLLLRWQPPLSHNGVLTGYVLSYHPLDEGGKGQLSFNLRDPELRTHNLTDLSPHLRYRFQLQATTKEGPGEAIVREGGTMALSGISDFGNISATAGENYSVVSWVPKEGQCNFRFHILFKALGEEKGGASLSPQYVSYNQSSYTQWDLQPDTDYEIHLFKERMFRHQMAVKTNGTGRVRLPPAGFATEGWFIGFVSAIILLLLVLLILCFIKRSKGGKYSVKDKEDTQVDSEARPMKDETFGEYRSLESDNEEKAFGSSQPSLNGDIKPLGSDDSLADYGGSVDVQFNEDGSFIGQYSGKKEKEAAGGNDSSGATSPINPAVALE

| Binder | binding result [1] | EC50 (read off the curve) [2] | EC50 (read off the curve) [3] | EC50 (read off the curve) [4] | EC50 (read off the curve) [5] | EC50 (read off the curve) [6] | Kd [7] | koff [7] | kon [7] | EC50 (read off the curve) [8] | binding result (BSA) |
| --- | --- | --- | --- | --- | --- | --- | --- | --- | --- | --- | --- |
| AbS0 antibody (AbS0 Fab converted into human IgG1) (antibody, V domains shown, also called AbS0 mAb; wild type AbS0) VH: EVQLVESGGGLVQPGGSLRLSCAASGFTFSTYAMSWVRQAPGKGLEWVSSISQSGGYTNYADSVKGRFTISRDNSKNTLYLQMNSLRAEDTAVYYCAKVIYASLDYWGQGTLVTVSS VL: DIQMTQSPSSLSASVGDRVTITCRASQSIASYLNWYQQKPGKAPKLLIYATSRLQSGVPSRFSGSGSGTDFTLTISSLQPEDFATYYCQQSYSSPYTFGQGTKVEIK | no binding | ~0.04 µg/mL | ~0.04 µg/mL | ~0.04 µg/mL | ~0.04 µg/mL | ~0.06 µg/mL | 0.5 nM | 0.000194 s⁻¹ | 392000 M⁻¹ s⁻¹ | ~0.003 µg/mL |  |
| AbS0 Fab phage (Fab, V domains shown) VH: EVQLVESGGGLVQPGGSLRLSCAASGFTFSTYAMSWVRQAPGKGLEWVSSISQSGGYTNYADSVKGRFTISRDNSKNTLYLQMNSLRAEDTAVYYCAKVIYASLDYWGQGTLVTVSS VL: DIQMTQSPSSLSASVGDRVTITCRASQSIASYLNWYQQKPGKAPKLLIYATSRLQSGVPSRFSGSGSGTDFTLTISSLQPEDFATYYCQQSYSSPYTFGQGTKVEIK |  |  |  |  |  |  |  |  |  |  | no binding |
